Tests used:
nLUC = biological target: T1, nLUC (firefly, UniProt P08659 1-416 = luciferase); assay: firefly luciferase complementation imaging, co-expression in N. benthamiana leaves
T1 construct: Control of the luciferase complementation imaging assay
Description: (§1) (A) OML4 interacts with GSK2 in yeast cells. Yeast cells were cultured on SD/-Trp-Leu or SD/-Trp-Leu-His-Ade media. (B) OML4 associates with GSK2 in N. benthamiana. OML4-nLUC and GSK2-cLUC were co-expressed in N. benthamiana leaves. Luciferase activity was observed 48 hours after infiltration. The range of luminescence intensity was scaled by the pseudocolor bar. (C) Bimolecular fluorescence complementation (BiFC) assays shown that OML4 interacts with GSK2 in N. benthamiana. OML4-cYFP was coexpressed with GSK2-nYFP in leaves of N. benthamiana. (D) OML4 binds GSK2 in vitro. GSK2-GST was incubated with OML4-MBP and pulled down by OML4-MBP and detected by immunoblot with anti-GST antibody. IB: immunoblot. (E) Interaction between OML4 and GSK2 in the Co-IP assays. Anti-MYC beads were used to immunoprecipitate GSK2-GFP proteins. Gel blots were probed with anti-MYC or anti-GFP antibody. Bars: 50 μm in C.
(§2) We next verified the interaction between OML4 and GSK2 in plant cells using the firefly luciferase (LUC) complementation imaging assay (FIG. 5B). The OML4-nLUC and GSK2-cLUC were transformed and co-expressed in N. benthamiana leaves. […] We then performed bimolecular fluorescence complementation (BiFC) assay to test the interaction between OML4 and GSK2 in plant cells (FIG. 5C). […]

OML4-nLUC = biological target: T2, OML4-nLUC (rice; firefly, UniProt Q64M78 1-1001); assay: firefly luciferase complementation imaging in N. benthamiana leaves
T2 construct: Co-expressed in N. benthamiana leaves; Order of the pieces follows the printed name; not shown: N-terminal fragment of firefly luciferase (nLUC)
T2 sequence: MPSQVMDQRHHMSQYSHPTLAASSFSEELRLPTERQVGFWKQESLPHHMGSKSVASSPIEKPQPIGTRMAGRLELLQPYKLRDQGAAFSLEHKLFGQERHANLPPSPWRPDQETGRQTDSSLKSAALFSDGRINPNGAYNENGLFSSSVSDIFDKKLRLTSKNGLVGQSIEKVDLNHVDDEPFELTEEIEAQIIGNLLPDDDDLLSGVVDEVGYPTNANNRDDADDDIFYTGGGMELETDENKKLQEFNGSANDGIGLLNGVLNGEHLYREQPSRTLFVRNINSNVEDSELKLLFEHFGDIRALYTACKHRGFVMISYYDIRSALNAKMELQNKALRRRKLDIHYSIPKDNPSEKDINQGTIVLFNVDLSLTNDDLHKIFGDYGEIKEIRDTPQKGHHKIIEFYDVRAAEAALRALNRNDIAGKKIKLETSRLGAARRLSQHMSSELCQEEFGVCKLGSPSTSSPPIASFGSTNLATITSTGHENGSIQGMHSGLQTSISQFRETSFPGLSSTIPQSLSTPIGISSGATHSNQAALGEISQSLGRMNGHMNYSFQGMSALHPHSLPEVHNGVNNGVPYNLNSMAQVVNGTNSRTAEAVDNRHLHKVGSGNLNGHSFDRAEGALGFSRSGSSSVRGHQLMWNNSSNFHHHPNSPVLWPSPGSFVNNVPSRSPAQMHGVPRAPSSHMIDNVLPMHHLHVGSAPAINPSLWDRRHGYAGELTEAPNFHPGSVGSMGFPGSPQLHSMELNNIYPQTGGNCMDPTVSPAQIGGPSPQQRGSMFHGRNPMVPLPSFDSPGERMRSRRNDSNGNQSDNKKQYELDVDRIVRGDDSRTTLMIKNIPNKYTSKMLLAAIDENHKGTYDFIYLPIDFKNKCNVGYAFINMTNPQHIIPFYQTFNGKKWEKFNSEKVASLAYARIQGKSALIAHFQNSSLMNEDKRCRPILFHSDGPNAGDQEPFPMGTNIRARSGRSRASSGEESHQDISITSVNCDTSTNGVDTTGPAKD
Description: as §1, §2

T1 sequence (P08659 1-416): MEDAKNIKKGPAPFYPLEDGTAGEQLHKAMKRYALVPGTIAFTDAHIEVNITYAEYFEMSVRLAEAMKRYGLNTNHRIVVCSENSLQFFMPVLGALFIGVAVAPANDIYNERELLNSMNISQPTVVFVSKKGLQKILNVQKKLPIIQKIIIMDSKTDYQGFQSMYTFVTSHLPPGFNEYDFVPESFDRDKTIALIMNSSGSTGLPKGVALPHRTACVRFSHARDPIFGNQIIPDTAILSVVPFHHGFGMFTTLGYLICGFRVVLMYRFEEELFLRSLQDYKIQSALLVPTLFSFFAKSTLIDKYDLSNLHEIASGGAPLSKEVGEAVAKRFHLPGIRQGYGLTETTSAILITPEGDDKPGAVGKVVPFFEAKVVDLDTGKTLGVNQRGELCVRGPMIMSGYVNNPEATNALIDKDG

B1: GSK2-cLUC (enzyme)
chain: MDQPAPAPEPMLLDAQPPAAVACDKKQQEGEAPYAEGNDAVTGHIISTTIGGKNGEPKRTISYMAERVVGTGSFGIVFQAKCLETGETVAIKKVLQDRRYKNRELQLMRAMDHPNVISLKHCFFSTTSRDELFLNLVMEYVPETLYRVLKHYSNANHRMPLIYVKLYMYQLFRGLAYIHTVPGVCHRDVKPQNVLVDPLTHQVKLCDFGSAKTLVPGEPNISYICSRYYRAPELIFGATEYTTSIDIWSAGCVLAELLLGQPLFPGESAVDQLVEIIKVLGTPTREEIRCMNPNYTEFRFPQIKAHPWHKVFHKRMPPEAIDLASRLLQYSPSLRCTALDACAHPFFDELREPNARLPNGRPFPPLFNFKHELANSSQELISRLIPEHVRRQATHNFFNTGS
notes: Co-expressed in N. benthamiana leaves; Order of the pieces follows the printed name; not shown: C-terminal fragment of firefly luciferase (cLUC)
- binding result (nLUC): no binding
- binding result (OML4-nLUC): binds
